{"source": "patent CN109929036A", "about": "(TAIZHOU MAIBO TAIKE PHARMACEUTICAL CO LTD, dated 2019)", "binders": {"B1": {"name": "全人源抗PD-1单克隆抗体5L12 (antibody, human IgG4 S228P, kappa, V domains shown)", "VH": "EVQLVESGGGLVQPGGSLRLSCAASGYTFTSYWMLWVRQAPGKGLEWVSYIYPSTGYTEYSENFKDRFTISRDNSKNTLYLQMNSLRAEDTAVYYCARGVRYYFDYWGQGTLVTVSS", "VL": "DIQMTQSPSSLSASVGDRVTITCKSSQSLLDSSTRKNYLAWYQQKPGKAPKLLIYWASTRESGVPSRFSGSGSGTDFTLTISSLQPEDFATYYCKQSYNLWTFGQGTKVEIKR", "notes": "also called FITC-5L12"}}, "key": {"[1]": {"target": "CHO细胞重组表达的人PD-1胞外段全长蛋白(第20-170位氨基酸) (human) (UniProt Q15116)", "assay": "SPR, BIACORE3000, 5L12 coupled to the chip"}, "[2]": {"target": "T1, 表面表达人PD-1的基因重组293T细胞上的人PD-1 (human, UniProt Q15116 25-288)", "T1 construct": "whole, on cells; also called 2H-3细胞表面PD-1; 表面表达PD-1的293T细胞", "T1 sequence (Q15116 25-288)": "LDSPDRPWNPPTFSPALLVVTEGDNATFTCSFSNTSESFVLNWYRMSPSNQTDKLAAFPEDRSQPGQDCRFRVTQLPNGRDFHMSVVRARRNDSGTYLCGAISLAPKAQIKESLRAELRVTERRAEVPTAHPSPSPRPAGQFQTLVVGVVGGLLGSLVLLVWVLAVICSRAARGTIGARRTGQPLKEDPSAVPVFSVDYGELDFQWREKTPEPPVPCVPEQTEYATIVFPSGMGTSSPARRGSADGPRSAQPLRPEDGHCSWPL", "assay": "flow cytometry competition; displacement of FITC-PD-L1 from PD-1-expressing 293T cells"}, "[3]": {"target": "T2, 化学合成的人PD-1第75-82位氨基酸(序列QTDKLAAF) (human)", "T2 peptide": "QTDKLAAF", "assay": "SPR, BIACORE3000, 5L12 coupled to the chip"}}}
{"binder": "B1", "values": [{"measurement": "Kd", "setting": "[1]", "value": 0.01, "unit": "nM"}, {"measurement": "IC50", "setting": "[2]", "value": "~0.03", "unit": "µg/mL"}, {"measurement": "IC50 ratio against Nivolumab", "setting": "[2]", "value": "0.05 fold of the IC50 of Nivolumab"}, {"measurement": "IC50 ratio against Pembrolizumab", "setting": "[2]", "value": "0.5 fold of the IC50 of Pembrolizumab"}, {"measurement": "Kd", "setting": "[3]", "value": "~0.01", "unit": "nM"}]}
